Experimental data published in article PMC12017343, “Extended repertoire of CXC chemokines acting as agonists and antagonists of the human and murine atypical chemokine receptor ACKR2” (Journal of Leukocyte Biology, 2025).

T1: mouse ACKR2 N-terminally fused with the NanoLuc (mouse, UniProt O08707 1-378)
T1 construct: atypical chemokine receptor 2 (ACKR2), mouse; also called mACKR2; NanoLuc-ACKR2; source: HEK293T, stably expressing (pIRES-puromycin vector), on cells; not shown: NanoLuc, N-terminal, kept
T1 sequence (looked up): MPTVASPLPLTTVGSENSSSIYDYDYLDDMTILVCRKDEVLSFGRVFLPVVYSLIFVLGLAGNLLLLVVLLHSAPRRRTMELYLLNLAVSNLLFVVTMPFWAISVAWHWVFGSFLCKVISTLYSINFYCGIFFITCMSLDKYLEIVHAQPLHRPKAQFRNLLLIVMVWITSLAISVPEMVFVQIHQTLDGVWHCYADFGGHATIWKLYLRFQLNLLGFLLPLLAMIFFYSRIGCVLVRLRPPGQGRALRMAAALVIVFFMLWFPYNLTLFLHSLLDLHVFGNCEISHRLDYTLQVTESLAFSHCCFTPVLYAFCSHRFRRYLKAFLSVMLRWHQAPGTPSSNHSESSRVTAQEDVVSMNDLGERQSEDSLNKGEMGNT


Target: T1, mouse ACKR2 N-terminally fused with the …
Test: FRET or BRET; NanoBRET competition binding, concentration-response: increasing chemokine (highest 300 nM) against LIH222-AZ594 (5 nM for human, 10 nM for mouse) on HEK293T cells expressing NanoLuc-ACKR2; 2 h on ice
Settings: one partner purified

Binder | pIC50
mouse CXCL11 (ligand, UniProt Q9JHH5 22-100, looked up, CXCL11, mouse, native chemokine; source: bought: Protein Foundry) FLMFKQGRCLCIGPGMKAVKMAEIEKASVIYPSNGCDKVEVIVTMKAHKRQRCLDPRSKQARLIMQAIEKKNFLRRQNM | ≤ 7.04
mouse CXCL10 (ligand, UniProt P17515 22-98, looked up, CXCL10, mouse, native chemokine; source: bought: Protein Foundry) IPLARTVRCNCIHIDDGPVRMRAIGKLEIIPASLSCPRVEIIATMKKNDEQRCLNPESKTIKNLMKAFSQKRSKRAP | ≤ 8.01
mouse CXCL5 (ligand, The paper prints no limits. The full-length mature chain after the signal peptide was taken for the 'native' chemokine (Protein Foundry); the commercial form could instead be GCP-2(1-78), 41-118, or …) APSSVIAATELRCVCLTVTPKINPKLIANLEVIPAGPQCPTVEVIAKLKNQKEVCLDPEAPVIKKIIQKILGSDKKKAKRNALAVERTASVQ | ≤ 8.51
